In assay [1] the target is T1, mouse beta klotho expressed on cells (mouse (Mus musculus), UniProt Q99N32 1-1043).
T1 construct: also called Mouse KLB
T1 sequence: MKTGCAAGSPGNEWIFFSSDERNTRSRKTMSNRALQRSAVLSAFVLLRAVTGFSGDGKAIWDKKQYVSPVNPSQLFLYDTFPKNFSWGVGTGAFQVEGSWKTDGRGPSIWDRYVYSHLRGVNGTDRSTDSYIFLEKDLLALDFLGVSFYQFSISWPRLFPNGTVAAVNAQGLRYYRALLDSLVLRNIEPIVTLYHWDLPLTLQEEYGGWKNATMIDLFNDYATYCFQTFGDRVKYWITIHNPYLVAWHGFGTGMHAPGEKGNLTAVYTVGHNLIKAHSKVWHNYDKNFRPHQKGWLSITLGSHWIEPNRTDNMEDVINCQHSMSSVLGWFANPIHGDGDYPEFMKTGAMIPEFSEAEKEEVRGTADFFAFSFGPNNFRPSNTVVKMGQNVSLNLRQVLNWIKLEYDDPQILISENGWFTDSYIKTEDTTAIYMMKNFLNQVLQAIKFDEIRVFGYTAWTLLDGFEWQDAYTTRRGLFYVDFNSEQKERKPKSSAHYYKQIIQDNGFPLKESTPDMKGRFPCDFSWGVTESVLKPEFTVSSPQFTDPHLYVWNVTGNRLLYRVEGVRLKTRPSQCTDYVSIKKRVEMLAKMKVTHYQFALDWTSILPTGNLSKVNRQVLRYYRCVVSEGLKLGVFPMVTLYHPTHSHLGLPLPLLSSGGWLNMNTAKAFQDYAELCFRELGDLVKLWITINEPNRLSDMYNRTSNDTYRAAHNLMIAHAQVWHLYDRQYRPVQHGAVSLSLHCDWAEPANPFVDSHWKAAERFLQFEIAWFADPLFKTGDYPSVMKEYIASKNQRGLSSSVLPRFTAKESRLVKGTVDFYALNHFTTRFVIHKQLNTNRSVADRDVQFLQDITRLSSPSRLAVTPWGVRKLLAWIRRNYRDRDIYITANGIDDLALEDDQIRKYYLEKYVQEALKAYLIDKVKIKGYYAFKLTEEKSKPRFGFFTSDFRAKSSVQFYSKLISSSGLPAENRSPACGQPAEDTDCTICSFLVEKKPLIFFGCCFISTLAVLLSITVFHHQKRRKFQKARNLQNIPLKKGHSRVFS
Description: FACS on transfected Expi293 cells, antibody 1 µg/ml, labelled anti-human Fc. As to the method:
(§1) Studies were performed in order to localize the binding site on human KLB of anti-beta klotho antibodies in the 5H23 epitope bin, including 5H23 as described in Example 3, with sequences shown in Tables 1-10 and FIGS. 1-3, and human anti-beta klotho antibodies in the 5H23 epitope bin, such as humanized 5H23 antibodies (e.g., VH SEQ ID NO: 271 and VL SEQ ID NO: 276). For example, FACS-based binding assays for domain mapping were performed on Expi293 cells (Life Technologies, A14635) that were transiently transfected with plasmids encoding variants of KLB: human, mouse, cynomolgus, a chimeric version in which the KL1 domain sequence of mouse KLB (M1-F506) replaces the KL1 domain of human KLB (M1-F508) to create mouse-human KLB (SEQ ID NO: 376), and a second chimera in which the human KL1 sequence (M1-F508) replaces the KL1 domain of mouse KLB (M1-F506) to create human-mouse KLB (SEQ ID NO: 374). Additionally, the expression vector pYD7 harboring no KLB sequence was transfected as a negative control.
(§2) In some studies, binding of a purified sample of a humanized 5H23 antibody (e.g., VH SEQ ID NO: 271 and VL SEQ ID NO: 276) to KLB variants was determined by FACS analysis. […] After washing with PBS/1% BSA/0.1% azide, transfected cells were then co-incubated with labeled anti-human Fc (Jackson lmmunoresearch) for 30 minutes at 4° C. After washing with PBS/1% BSA/0.1% azide, cells were acquired on flow cytometer (FACS Calibur) and analyzed by cytometric software (FlowJo). To display the resulting data, graphs plotting the number of cells as a function of fluorescence intensity were generated, and the median fluorescence intensity (MFI) was determined for each sample as shown in Table 30.

Assay [2] has as its target T2, mouse-human KLB chimeric protein (mouse KLB (M1-F506)-human KLB (S509-S1044)) on cells (mouse/human chimera, UniProt Q86Z14 1-1044 (human entry)).
T2 construct: also called Mouse-Human chimeric KLB; chMoHu
Described as above. As for the experimental part:
as §1, §2

Assay [3] deals with T3, human-mouse KLB chimeric protein (human KLB (M1-F508)-mouse KLB (P507-S1043)) on cells (human/mouse chimera, UniProt Q99N32 1-1043 (mouse entry)).
T3 construct: also called Human-Mouse chimeric KLB; chHuMo
The assay is described as above. As to the method:
as §1, §2

The target in assay [4] is human beta klotho / human FGFR1c receptor complex on cells (human, UniProt Q86Z14 1-1044; P11362 22-822). Put plainly: cell-based or functional assay.
human beta klotho / human FGFR1c receptor complex on cells, sequence (Q86Z14 whole entry, chain 1 of 2): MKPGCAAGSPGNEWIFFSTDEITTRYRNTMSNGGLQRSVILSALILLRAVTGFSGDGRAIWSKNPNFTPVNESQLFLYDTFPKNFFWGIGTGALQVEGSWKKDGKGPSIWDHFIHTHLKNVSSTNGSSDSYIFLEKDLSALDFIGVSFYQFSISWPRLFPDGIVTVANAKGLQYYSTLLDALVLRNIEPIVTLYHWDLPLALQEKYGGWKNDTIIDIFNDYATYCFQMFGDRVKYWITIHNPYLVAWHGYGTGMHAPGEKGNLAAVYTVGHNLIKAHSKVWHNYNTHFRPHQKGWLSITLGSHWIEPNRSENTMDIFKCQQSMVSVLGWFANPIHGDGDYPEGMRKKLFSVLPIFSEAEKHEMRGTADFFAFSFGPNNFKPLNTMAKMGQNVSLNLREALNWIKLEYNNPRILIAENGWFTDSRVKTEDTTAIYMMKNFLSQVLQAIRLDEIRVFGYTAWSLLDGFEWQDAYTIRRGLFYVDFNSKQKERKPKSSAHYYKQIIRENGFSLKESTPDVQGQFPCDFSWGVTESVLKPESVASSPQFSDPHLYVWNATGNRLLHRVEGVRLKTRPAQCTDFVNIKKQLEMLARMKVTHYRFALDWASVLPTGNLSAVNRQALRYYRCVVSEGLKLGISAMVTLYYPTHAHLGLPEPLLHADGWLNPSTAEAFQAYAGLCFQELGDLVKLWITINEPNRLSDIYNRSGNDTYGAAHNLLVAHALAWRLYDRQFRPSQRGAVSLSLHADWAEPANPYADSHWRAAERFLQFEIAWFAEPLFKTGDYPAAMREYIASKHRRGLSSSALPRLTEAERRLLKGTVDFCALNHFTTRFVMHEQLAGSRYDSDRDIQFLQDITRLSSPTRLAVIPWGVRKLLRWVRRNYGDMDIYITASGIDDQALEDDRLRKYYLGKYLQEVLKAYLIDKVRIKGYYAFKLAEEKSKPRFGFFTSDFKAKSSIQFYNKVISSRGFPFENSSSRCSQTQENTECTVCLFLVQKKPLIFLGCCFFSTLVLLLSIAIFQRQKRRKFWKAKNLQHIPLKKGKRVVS
human beta klotho / human FGFR1c receptor complex on cells, sequence (P11362 22-822 limits assumed, chain 2 of 2): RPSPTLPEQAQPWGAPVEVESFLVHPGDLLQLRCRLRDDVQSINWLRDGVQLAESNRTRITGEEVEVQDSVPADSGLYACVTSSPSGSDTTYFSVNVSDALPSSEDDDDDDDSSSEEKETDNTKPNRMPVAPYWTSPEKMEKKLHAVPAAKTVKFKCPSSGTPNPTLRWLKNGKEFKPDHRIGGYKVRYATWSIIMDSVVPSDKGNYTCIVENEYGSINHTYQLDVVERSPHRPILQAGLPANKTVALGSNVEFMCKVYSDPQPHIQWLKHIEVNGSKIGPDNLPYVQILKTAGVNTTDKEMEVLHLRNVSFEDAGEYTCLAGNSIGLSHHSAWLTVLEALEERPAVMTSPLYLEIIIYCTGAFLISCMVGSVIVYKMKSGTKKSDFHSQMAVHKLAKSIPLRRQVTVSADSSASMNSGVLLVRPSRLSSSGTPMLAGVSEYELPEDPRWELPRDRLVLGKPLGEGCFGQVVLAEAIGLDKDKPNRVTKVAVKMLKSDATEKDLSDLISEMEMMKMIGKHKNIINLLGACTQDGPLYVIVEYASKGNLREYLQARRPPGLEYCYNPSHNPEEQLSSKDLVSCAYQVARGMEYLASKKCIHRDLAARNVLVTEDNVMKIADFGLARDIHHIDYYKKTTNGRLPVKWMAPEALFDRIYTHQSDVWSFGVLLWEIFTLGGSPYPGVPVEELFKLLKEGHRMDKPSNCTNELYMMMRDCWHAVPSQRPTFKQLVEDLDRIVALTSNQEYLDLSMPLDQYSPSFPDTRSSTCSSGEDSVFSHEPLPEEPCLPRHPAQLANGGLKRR

B1: humanized 5H23 antibody (VH SEQ ID NO: 271 and VL SEQ ID NO: 276) (antibody, V domains shown)
VH: QVQLQQSGAEVKKPGASVKVSCKASGYTFTSYDINWVRQAPGQGLEWIGWIYPGDGSTKYNEKFKGKATITRDTSASTAYMELSSLRSEDTAVYFCARSDYYGSRSFAYWGQGTLVTVSS
VL: DIVMTQSPDSLAVSLGERATINCRASKSVSTSGYVYMHWYQQKPGQPPKLLIYLASYLESGVPDRFSGSGSGTDFTLTISSVQAEDVAVYYCQHSRDLTFPFGGGTKLEIK
notes: also called h5H23; h5H23 (Prep 1)
On to B1, for which the figures for the “Mean Fluorescence intensity” value in assay [1], in assay [2] and in assay [3] were 14.2 MFI, 26.1 MFI and 9.29 MFI, respectively. Also, the EC50 adipocyte in assay [4] was determined as 11.2 nM. Besides, the EC50 reporter assay in assay [4] worked out at 0.6 nM.

B2: negative control antibody, anti-keyhole limpet hemocyanin (KLH) antibody (antibody, human IgG1, kappa, V domains shown)
VH: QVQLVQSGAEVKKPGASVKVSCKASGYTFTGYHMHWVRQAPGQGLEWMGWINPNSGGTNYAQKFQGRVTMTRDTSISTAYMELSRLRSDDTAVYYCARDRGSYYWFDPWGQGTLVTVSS
VL: DIQMTQSPSSLSASVGDRVTITCRASQGIRNDLGWYQQKPGKAPKRLIYAASSLQSGVPSRFSGSGSGTEFTLTISSLQPEDFATYYCLQHNSYPLTFGGGTKVEIKR
notes: also called Neg; Control; anti-KLH antibody
For B2, the “Mean Fluorescence intensity” value stood at 9.59 MFI in assay [1], 5.44 MFI in assay [2] and 6.01 MFI in assay [3].
